Assay results published in PMC10269683, “comCDE (Competence) Operon Is Regulated by CcpA in Streptococcus pneumoniae D39”.

B1: Mut cre1 (dsDNA)
DNA 1: ATATAATAGATGCATGTCATGTGAATTCCACGTTGCATCTAATTAAGTACACTTTGGGAGAAAAAAATGACAGTTGAGA
DNA 2: TCTCAACTGTCATTTTTTTCTCCCAAAGTGTACTTAATTAGATGCAACGTGGAATTCACATGACATGCATCTATTATAT
B2: Mut cre2 (dsDNA)
DNA 1: ATATAATAGCAAAGCTGGGAATTTTCCCGGCTTTTTTCTTAAAAAAGTACACAACGATAGATATTAGGTAGAATGGAGA
DNA 2: TCTCCATTCTACCTAATATCTATCGTTGTGTACTTTTTTAAGAAAAAAGCCGGGAAAATTCCCAGCTTTGCTATTATAT
B3: P54 (cre3+cre4) (dsDNA)
DNA 1: TAAGTTAGCTTACAAGAAAAAACATTTTAGGAGATTTTATTATGAAAAACACAG
DNA 2: CTGTGTTTTTCATAATAAAATCTCCTAAAATGTTTTTTCTTGTAAGCTAACTTA

Experiments:
CcpA [1] = molecular target: T1, CcpA (Streptococcus pneumoniae D39, UniProt A0A0H2ZQ65 1-336); experiment: EMSA; increasing CcpA; EMSA: 10 mM Tris-HCl pH 7.4, 1 mM DTT, 1 mM EDTA, 50 mM KCl, 5% glycerol, 50 ug/mL BSA, 0.05% NP-40, 20 min 37 C; footprinting binding 30 min 25 C; conditions: protein: recombinant; label: biotin; blunt
CcpA [2] = molecular target: T1, CcpA; experiment: EMSA; complex at 1 ug CcpA, 1 ng probe; unlabeled Np54 (100 ng) diminished complex; EMSA: 10 mM Tris-HCl pH 7.4, 1 mM DTT, 1 mM EDTA, 50 mM KCl, 5% glycerol, 50 ug/mL BSA, 0.05% NP-40, 20 min 37 C; footprinting binding 30 min 25 C; conditions: protein: recombinant; label: 5' biotin; blunt

| Binder | binding result (CcpA [1]) | binding result (CcpA [2]) |
| --- | --- | --- |
| B1 | binds | – |
| B2 | binds | – |
| B3 | – | binds |
